For one protein, Km and kcat results are on record in paper PMC5172458.

Substrate in this data set: O=c1ccn([C@H]2C[C@H](O)[C@@H](COP(=O)(O)O)O2)c(=O)[nH]1
Description: purified protein. The note with it: 25 °C, CH2H4folate fixed at 50 μM, TCEP. Type of data set: biochemical, Escherichia coli.

B1: ecTSase (Escherichia coli thymidylate synthase) (Escherichia coli K-12; H147V) (protein)
chain: MKQYLELMQKVLDEGTQKNDRTGTGTLSIFGHQMRFNLQDGFPLVTTKRCHLRSIIHELLWFLQGDTNIAYLHENNVTIWDEWADENGDLGPVYGKQWRAWPTPDGRHIDQITTVLNQLKNDPDSRRIIVSAWNVGELDKMALAPCVAFFQFYVADGKLSCQLYQRSCDVFLGLPFNIASYALLVHMMAQQCDLEVGDFVWTGGDTHLYSNHMDQTHLQLSREPRPLPKLIIKRKPESIFDYRFEDFEIEGYDPHPGIKAPVAI
As usually defined, the Km is the substrate concentration at which the rate is half of its maximum. A word on the kcat: it is the number of substrate molecules converted per active site and unit of time at saturation. In the case of B1, the Km was 4.0 ± 1.3 µM and the kcat is 0.61 ± 0.04 s⁻¹.
